Source: PMC4837377 (Scientific Reports, 2016)

B1: PA-PB1-PB2(1-116) truncated heterotrimer (construct 15) (complex)
chain 1: […]
chain 2: MDVNPTLLFLKVPAQNAISTTFPYTGDPPYSHGTGTGYTMDTVNRTHQYSEKGKWTTNTETGAAQLNPIDGPLPEDNEPSGYAQTDCVLEAMAFLEESHPGIFENSCLETMEVVQQTRVDRLTQGRQTYDWTLNRNQPAATALANTIEVFRSNGLIANESGRLIDFLKDVIESMDKEEMEITTHFQRKRRVRDNMTKKMVTQRTIGKKKQRVNKRSYLIRALTLNTMTKDAERGKLKRRAIATPGMQIRGFVYFVETLARSICEKLEQSGLPVGGNEKKAKLANVVRKMMTNSQDTELSFTITGDNTKWNENQNPRMFLAMITYITKNQPEWFRNILSIAPIMFSNKMARLGKGYMFESKRMKLRTQIPAEMLASIDLKYFNESTRKKIEKIRPLLIDGTASLSPGMMMGMFNMLSTVLGVSILNLGQKKYTKTTYWWDGLQSSDDFALIVNAPNHEGIQAGVDRFYRTCKLVGINMSKKKSYINRTGTFEFTSFFYRYGFVANFSMELPSFGVSGINESADMSIGVTVIKNNMINNDLGPATAQMALQLFIKDYRYTYRCHRGDTQIQTRRSFELKKLWEQTRSKAGLLVSDGGPNLYNIRNLHIPEVCLKWELMDEDYQGRLCNPLNPFVSHKEIESVNNAVVMPAHGPAKSMEYDAVATTHSWIPKRNRSILNTSQRGILEDEQMYQKCCNLFEKFFPSSSYRRPVGISSMVEAMVSRARIDARIDFESGRIKKEEFSEIMKICSTIEELRRQK
chain 3: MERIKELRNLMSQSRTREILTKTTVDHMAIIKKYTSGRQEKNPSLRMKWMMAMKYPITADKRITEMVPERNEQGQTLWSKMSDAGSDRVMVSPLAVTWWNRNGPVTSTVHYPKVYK
notes: copies: + +
B2: PA-PB1-PB2(1-250) truncated heterotrimer (construct 16) (complex)
chain 1: […]
chain 2: B1 chain 2
chain 3: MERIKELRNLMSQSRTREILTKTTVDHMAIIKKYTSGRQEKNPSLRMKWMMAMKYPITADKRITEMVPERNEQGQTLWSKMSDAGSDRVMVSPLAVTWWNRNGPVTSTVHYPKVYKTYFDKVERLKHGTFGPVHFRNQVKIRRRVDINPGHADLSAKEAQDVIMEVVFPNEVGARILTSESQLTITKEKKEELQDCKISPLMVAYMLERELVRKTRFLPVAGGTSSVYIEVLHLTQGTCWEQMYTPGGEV
notes: copies: + +

Target: the molecule itself
Test: SEC-MALS

Protein | stoichiometry N
B1 | 2
B2 | 2
